Laboratory results: PMC10842940, “Establishment of dsDNA-dsDNA interactions by the condensin complex” (Molecular cell, 2023)

Legend:
[1] = biological target: T1, Cnd1^Ycs4 (fission yeast condensin HEAT-repeat subunit) (S. pombe, UniProt O94679 1-1158); assay: cross-linking; sulfo-SDA cross-link mass spectrometry (CLMS) of the purified five-subunit condensin complex with equimolar 124 bp linear dsDNA and 0.5 mM ADP·BeF3 (DNA-gripping state); CL buffer, 30°C 30 min, UV 365 nm on ice; 1% FDR at residue-pair level; details: both partners purified
T1 construct: Cnd1 (Ycs4), S. pombe condensin HEAT-repeat subunit; cDNA cloned into an S. cerevisiae expression vector; source: S. cerevisiae (w303, pep4 deleted), co-overexpressed with the other four condensin subunits from GAL1-10 promoters; in cell extract, and purified as the complex (IgG-agarose, 3C protease elution, heparin, Superose 6)
T1 sequence (looked up): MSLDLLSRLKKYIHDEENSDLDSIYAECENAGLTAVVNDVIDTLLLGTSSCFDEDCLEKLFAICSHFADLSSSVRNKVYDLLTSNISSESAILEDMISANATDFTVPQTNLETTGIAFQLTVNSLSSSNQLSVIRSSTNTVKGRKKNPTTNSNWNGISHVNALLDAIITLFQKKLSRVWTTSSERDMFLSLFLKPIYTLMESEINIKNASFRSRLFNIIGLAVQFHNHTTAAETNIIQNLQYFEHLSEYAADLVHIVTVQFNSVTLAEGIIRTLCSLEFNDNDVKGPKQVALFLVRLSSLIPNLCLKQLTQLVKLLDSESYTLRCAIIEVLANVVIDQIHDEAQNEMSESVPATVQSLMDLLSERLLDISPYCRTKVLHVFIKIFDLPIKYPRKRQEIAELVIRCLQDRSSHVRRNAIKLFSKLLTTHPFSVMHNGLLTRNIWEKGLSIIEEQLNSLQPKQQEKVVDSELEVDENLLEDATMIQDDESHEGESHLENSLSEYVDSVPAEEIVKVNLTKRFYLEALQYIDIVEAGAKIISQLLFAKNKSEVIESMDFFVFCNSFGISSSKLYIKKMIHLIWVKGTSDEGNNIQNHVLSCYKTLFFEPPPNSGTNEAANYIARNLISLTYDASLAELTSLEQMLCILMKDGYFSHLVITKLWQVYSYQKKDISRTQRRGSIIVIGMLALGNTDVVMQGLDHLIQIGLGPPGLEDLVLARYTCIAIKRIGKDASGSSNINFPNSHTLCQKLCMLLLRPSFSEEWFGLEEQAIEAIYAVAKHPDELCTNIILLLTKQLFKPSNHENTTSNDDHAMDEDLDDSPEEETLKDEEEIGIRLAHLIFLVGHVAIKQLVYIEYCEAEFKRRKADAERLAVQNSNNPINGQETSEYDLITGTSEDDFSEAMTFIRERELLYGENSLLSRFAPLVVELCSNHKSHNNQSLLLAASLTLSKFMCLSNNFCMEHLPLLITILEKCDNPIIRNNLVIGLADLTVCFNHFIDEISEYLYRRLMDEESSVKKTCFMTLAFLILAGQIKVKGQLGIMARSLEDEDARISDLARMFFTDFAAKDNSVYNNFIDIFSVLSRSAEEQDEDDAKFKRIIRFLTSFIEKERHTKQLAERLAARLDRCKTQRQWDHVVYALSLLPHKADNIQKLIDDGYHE

[2] = biological target: T2, Cut14^Smc2 (fission yeast condensin SMC subunit) (S. pombe, UniProt P41003 1-1172); assay: cross-linking; sulfo-SDA cross-link mass spectrometry (CLMS) of the purified five-subunit condensin complex with equimolar 124 bp linear dsDNA, no nucleotide (initial state); CL buffer, 30°C 30 min, UV 365 nm on ice; 1% FDR at residue-pair level; details: both partners purified
T2 construct: Cut14 (Smc2), S. pombe condensin SMC subunit; cDNA cloned into an S. cerevisiae expression vector; The Pk tag is used for the condensin immunoprecipitation in the DNA assays; also called Cut14-3xPk; source: S. cerevisiae (w303, pep4 deleted), co-overexpressed with the other four condensin subunits from GAL1-10 promoters; in cell extract, and purified as the complex (IgG-agarose, 3C protease …)
T2 sequence (looked up): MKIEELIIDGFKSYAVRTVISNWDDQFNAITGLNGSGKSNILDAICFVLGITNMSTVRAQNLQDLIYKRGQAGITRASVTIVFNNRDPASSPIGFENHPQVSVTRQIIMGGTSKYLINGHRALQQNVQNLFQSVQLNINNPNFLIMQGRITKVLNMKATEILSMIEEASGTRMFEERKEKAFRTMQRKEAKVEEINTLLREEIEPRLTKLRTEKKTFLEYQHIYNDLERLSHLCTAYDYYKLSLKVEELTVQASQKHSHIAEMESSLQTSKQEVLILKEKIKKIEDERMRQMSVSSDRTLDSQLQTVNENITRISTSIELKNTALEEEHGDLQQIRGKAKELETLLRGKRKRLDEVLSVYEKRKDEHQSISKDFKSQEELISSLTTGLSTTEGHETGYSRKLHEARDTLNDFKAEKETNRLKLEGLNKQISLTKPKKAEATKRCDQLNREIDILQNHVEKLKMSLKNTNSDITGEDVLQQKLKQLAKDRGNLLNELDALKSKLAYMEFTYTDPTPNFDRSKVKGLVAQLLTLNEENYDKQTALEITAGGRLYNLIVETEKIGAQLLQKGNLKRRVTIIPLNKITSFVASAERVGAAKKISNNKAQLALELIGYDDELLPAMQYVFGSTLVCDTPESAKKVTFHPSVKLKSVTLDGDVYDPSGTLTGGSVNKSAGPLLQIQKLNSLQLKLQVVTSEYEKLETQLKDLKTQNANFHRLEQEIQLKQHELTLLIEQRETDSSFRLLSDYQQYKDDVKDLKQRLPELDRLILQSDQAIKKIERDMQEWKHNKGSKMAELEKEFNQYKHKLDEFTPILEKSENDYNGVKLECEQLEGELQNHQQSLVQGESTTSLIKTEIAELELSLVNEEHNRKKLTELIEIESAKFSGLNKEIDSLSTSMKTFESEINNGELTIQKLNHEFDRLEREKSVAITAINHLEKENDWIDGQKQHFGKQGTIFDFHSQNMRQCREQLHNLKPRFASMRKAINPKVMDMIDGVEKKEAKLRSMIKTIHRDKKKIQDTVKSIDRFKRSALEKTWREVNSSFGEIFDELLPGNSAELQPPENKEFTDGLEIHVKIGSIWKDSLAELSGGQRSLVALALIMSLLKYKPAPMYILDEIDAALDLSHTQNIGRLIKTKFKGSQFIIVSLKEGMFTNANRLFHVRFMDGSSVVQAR

B1: Cnd3^Ycg1 (fission yeast condensin HEAT-repeat subunit) (natural protein, S. pombe, UniProt Q10429 1-875, looked up)
chain: MSCIQIISSSQTSIAGHRKLCNKLFTLRTQEGFETDILRALNIILTVKKGNSNADRVLRFLVTFVNYLQQKDPEIDIVQPILKHILRGLDAKDKTVRYRCCQIIARVVNCVKEIDDDLYNTLKEKLLSRVLDRESIVRLEAVVALSRLQEDTGDEENDVRNILLFLLQNDPSSEVRRSVLLNIEVSNSTLPFILERARDVDAANRKCVYARVLPKIGDFRYLSIKKRVRILKWGLNDRDESVEKAAADMLAYQWIENADNNLLELLERLDVSNNSDVAVLAIKKFFDVRVDSLSQLEFPEQFWLELTAESSLLARTFNEICIEKNYTDLLDKMPEVVQLTYYIERQYVSLRDKSSYDESCFIIEQLLYIGLSQDMVDEIGRRKLLKSLTNSLSTMALPDSLISLHIELLRKLCSSENDFCSLLVEIITEVFEQGHSQNQTEEQGNSNAPELNKNDYEGEEITVSQKSPSPSLPPNELNEPEPDDMDGYKEAFNELRCLSYVQCLFENITSSLNENLYMVDMLKTLIIPAVRSHDLPIREKGLECLSLVCLLNADLAFENVPLYLHCYEKGSVVLKCTAIRTLTDMLIQHGKAKFTEYEDAISSILFEALGEFENAELQTLGAEAIAKLLVILHYRDELFLKPLIIQYFEPNTVDNHALRQVLGYFFPVYAFGAHENQWRIATIFCDALLSLLEIYRDLDEDDVQLSIGHIAQQMLDWTDNEKLYERKTQTGDDYIALNHNVHLHLANMIFESLPNASEGKERKFMISLLGKLKIPTDLPSSDYQRTKRKLETYESHGFTMDSTSLSILAKFERMLLQNEEARSKFEETEEERLMENAEENEHAGAEAISGEIIPDTVEANMEDEEEVYVKQEEDL
notes: Cnd3 (Ycg1), S. pombe condensin HEAT-repeat subunit; cDNA cloned into an S. cerevisiae expression vector; also called Cnd3^CAP-G; source: S. cerevisiae (w303, pep4 deleted), co-overexpressed with the other four condensin subunits from GAL1-10 promoters; in cell extract, and purified as the complex (IgG-agarose, 3C protease elution, heparin, Superose 6)
B1: binds [1]; binds [2].
